Laboratory results taken from article doi:10.1101/2024.05.01.590489 (bioRxiv, 2024).

B1: Fab3-4 (Fab, V domains shown)
VH: AVESGGGLVKPGGPLRLSCAASGFSLSDNYMTWIRQAPGKGLEWVSYISSSGSFINYADSVKGRFTISRDNAKNSLYLQMNSLRAEDTAVYYCARVLSSGGLTTSWRALWYFDVWGRGTLVTVS
VL: TVVTQEPSFSVSPGGTVTLTCGLTSGSVSTSYYPSWYQQTPGQTPRTLIYSTNIRSSGVPDRFSGSILGNKAALTITGAQADDECDYYCVLYMGSGIWVFGGGTKLTVL
B2: Fab1-4 (Fab, V domains shown)
VH: QVQVVESGAEVKKPGASVKVSCKASGYAFTTYYMHWVRQAPGQGLEWMGLINPSGDSITYAQRFQGRVTMTKDTSTSTVYMELSSLRSEDTAIYYCARDPNVAFYYGSGNYYKDNAMDVWGQGTTVTVSS
VL: not shown
B3: Fab2-1 (Fab, V domains shown)
VH: EVQLLESGGGLVQPGKSLRLSCAASGFSFSNYAMSWVRQAPGKGLEWVSGISGSGGSTNYAESVRGRFTISRDNSKNTLYLEMNSLRVEDTAVYYCAKGMSYYDRSGYFWAKYHYGMDVWGQGITVTVSS
VL: not shown
B4: Fab1-3 (Fab, V domains shown)
VH: VQLVESGGGVVQPGRSLRLSCAASGFSFSSFVFHWVRQAPGKGLEWVAVISYDGSNKNYADSVKGRFTISRDNSKNTLFLQMNSLSADDTAVYYCARGAICSSTTCYLGDSYYFYGMDVWGQGTTVTVSS
VL: LTQPPSVSGAPGQRVTISCTGSRSNIGAGYDVHWYQQLPGTAPKLLIYGNSNRPSGVPDRFSGSKSGTSASLAITGLQTDDEADYYCQSYDSSLSGSVFGGGTKLTVL
B5: Fab2-6 (Fab, V domains shown)
VH: VQLLESGGALVQPGGSLRLSCAASGFSFSNYAMSWVRQAPGKGLEWVSTISASGGTTYFADSVKGHFTISRDNSKNTLYLQMDSLRAEDTAVYYCAKDPNYYDLSGYFLGGYYFDYWGQGTLVTVSS
VL: EIVLTQSPGTLSLSPGERATLSCRASQSVRSSYLAWYQQKPGQAPRLLIYGASSRATDIPDRFSGSGSGTDFTLTISRLEPEDFAVYYCQQYGTSPAFGGGTKV
B6: Fab3-1 (Fab, V domains shown)
VH: EVQLLESGGGLVQPGGSLRLSCEASGFTFSRYPMNWVRQAPGKGLEWVSHISASGGTTYYADTVKGRFSISRDNSKNTLYLEMNSLRAEDTAIYFCAKDYPPDEVTMIVVGMPYFDSWGLGTLVSVSS
VL: not shown
B7: Fab1-2 (Fab, V domains shown)
VH: EVQLVESGGGLVQPGGSLRLSCAASGFIFSNYWMSWVRQAPGKGPEWVANIKQDGSANHYVDSVKGRFTISRDNAKNSLYLQMNSLRAEDTAVYYCAREAYQDWNYDYWGQGTLVTVSS
VL: DIQMTQSPSSLSASVGDRVTVTCRASEFISRYLNWYQQKPGKAPKVLIYAASSLQSGVPSRFSGSGSGTDFTLTISSLQPEDFATYYCQQSYSTPYTFGQGTKLEIK
B8: Fab3-6 (Fab, V domains shown)
VH: EVQLVESGGGLVQPGGSLRLSCSASGFHFSSYEMNWVRQAPGKGLEWVSYISSSGTYIDYADSVKGRFTISRDNPANSLYLQMYSLRAEDTAVYYCARRLWFGELPYSYYYGMDVWGQGTTVTVSS
VL: ALTQPASVSGSPGQSITISCTGTSSDIGGYNYVSWYQQHPGKAPELLIFDVSNRPSGVSNRFSGSKSGNTASLTISGLQAEDEADYHCCSYTRTSTVIFGGGTKLTVL
B9: Fab2-5 (Fab, V domains shown)
VH: EVQLVESGGGLVKPGGSPRLSCAASGFNFGSYSMNWVRQAPGKGLEWVSSISSSSSYIYYADSVKGRFTISRDNAKHSLYLQVNSLRAEDTAVYYCARDPTTYGYNSAWDKKGWYFDLWGRGTLLTVS
VL: VLTQPPSVSAAPGQMVTISCSGSSSNIGNDYISWYQQLPGTAPKLLIYDNNERPSGIPDRFSGSKSGTSATLGITGVQTGDEADYYCGTWDSSLSAWVFGEGTKLTVV
B10: Fab2-4 (Fab, V domains shown)
VH: EVQLLESGGGLVHPGGSLRLSCAASGFPFSNFAMSWVRQAPGKGLEWVSTISGSSGSTYYADSVRGRFTISRDYSKNTVYLEMNSLRADDTAIYYCAKDRMITFGEVIVKHYDAFEIWGQGTRVAV
VL: DIQMTQSPSSLSASVGDRVTITCRASQTISTNVNWYQQKPGKAPKLLIYAASSLQSGVPSRFSGSGSGTDFTLTISSLQPEDFATFYCQQSYSAPLTFGEGTKV
B11: Fab1-5 (Fab, V domains shown)
VH: EVQLVESGGGLVKPGGSLRLSCAASGFMFSSYSMNWVRQAPGKGLEWVSSISRSDSYIDYADSVKGRFTISRDTAMNVLYLQMDSLRAEDTGVYYCARTHVFNMFREVINDDYYGMDVWGQGTTVTVS
VL: ALTQPASVSGSPGQSITISCTGTSSDFGIYNSVSWYQHHPGKAPKLMIFGVSNRPSGVSNRFSGSKSGNTASLSISGLQAEDEADYYCSSFTARSTVVFGGGTKLTVL
B12: Fab2-7 (Fab, V domains shown)
VH: EVQLLESGGGLVQPGGSLRLSCAASGFTFSTYAMNWVRQAPGKGLEWVAGISASGGSAYYVDSVEGRFTISRDNSNNMLYLQMNSLRAEDTAVYYCAKAVYAITMVRGSITTNYYHYYAMDVWGQGTTVTV
VL: EIVLTQSPGTLSLSPGERATLSCRASQGVSSNYLAWYQQKPGQAPRLLIYDASNRATGIPDRFSGSGSGTDFTLTISRLEPEDFAVYYCQQYGSSPPLTFGGGTKVQI
B13: Fab3-5 (Fab, V domains shown)
VH: EVQLVESGGGLVQPGGSLRLSCAASGFTFSNYGMNWVRQAPGKGLEWVSYISSGGTIYYADSVKGRFTISRDNAKNSVYLQMNSLRAEDTAVYYCARDPAYCGDDCYTIPAHYFDYWGQGTPVTVS
VL: DIQMTQSPSSLSASVGDRVTITCRTSQSISRYLNWYQQKPGKAPKLLIYAASSLQSGVPSRFTGSGSGTDFTLTISSLQPEDFATYYCQQSYSIPPVTFGQGTRVD
B14: Fab3-3 (Fab, V domains shown)
VH: QVQLQESGPGLVKSSETLSLTCTVSGESISSSSHYWGWIRQPPGKGLEFLGNVYYLGSTYYNPSLESRVTILLDTSKNQFSLKVNSVTVADTAVYYCARHGAGSYSGLFFDYWGQGARVIVSS
VL: DIQMTQSPSFVSASVGDRVNITCRASQGINSWLAWYQQKPGKAPKLLIYSASSLQSGVPSRFSGSGSGTDFTLTISTLQPEDFATYYCQQANSFPYTFGQGTKVD
B15: Fab2-3 (Fab, V domains shown)
VH: VQLVESGGGLVKPGGSLRLSCATSGFTFSDYYMSWIRQAPGKGLEWVSYISSSGSTIYYADSVKGRFTMSRDNAKNSLFLRMNSLRAEDTAVYYCARDQITVDREVIRAHYYYGMDVWGQGTTVTVS
VL: DIQMTQSPSSVSASVGDRVTITCRASQGINSYLAWYQQKPGKAPKLLIYAASSLESGVPSRFSGSGSGTDFTLTISSLQPEDFATYYCQQANSFPLTFGGGTKVDI
B16: Fab1-7 (Fab, V domains shown)
VH: QVQLQESGPGLVKPSETLSLTCTVSGDSIRSYYWSWIRQPPGKGLEWIGHIYYSGSTNYKPSLKSRATILVDTSKNQFSLKLRSVTAADTAVYYCAREMTGVAGRGWDHWGQGTLVTVSS
VL: ALTQPPSASGTPGQRVTISCSGSSSNIGSNTVNWYQQLPGTAPKLLIFINNQRPSGVPDRFSGSKSGTSASLAISGLQSEDEADYYCTTWDGSLNGYVFGTRTEVTVL
B17: Fab3-7 (Fab, V domains shown)
VH: QVQLQESGPGLVKPSETLSLTCTVSGGSISNYYWNWIRQPPGKGLEWIGYVHYSGSTNYNPSLKSRVSVSVDTSKNQFSLNLGSVTAADTAVYYCARQSRSYYNEVITDPKYNFDYWGQGTLVTVSS
VL: QSALTQPASVSGSPGQSITISCTGTSSDVGGYDYVSWYQQHPGKAPKLMIYDVSNRPSGVSNRFSGSKSGNTASLTISGLQAEDEADYYCSSYTSISTLVFGGGTKLTVL
B18: Fab2-2 (Fab, V domains shown)
VH: QVQLQESGPGLVKPSVTLSLTCTVSGDSISTYYWSWVRQPPGKGLEWIGYIYYSGNTNYNPSLKSRVTMSVDTSKNQFSLKLNSVTAADTAVYYCARTHHDYGDYRPSYYFDYWGQGTLVTVSS
VL: QSALTQPASVSGSPGQSITISCTGTSSDVGAYDYVSWYQQHPGKAPKLMIYDVSNRPSSGVSNRFSGSKSGNTASLTISGLQAEDEADYYCSSYTSSSTVILGGGTKLTVL
B19: Fab1-6 (Fab, V domains shown)
VH: QVQLVESGAEVKQPGASVKVSCKASGYIFTSHNIHWVRKAPGQGLEWMGKINPSGGDANYAQKFQGRVVMTRDTSTNTVYVQLRSLRFEDTAVYYCARVHDFWSGYHRALDIWGQGTMVIVSS
VL: VLTQPPSASGTPGQTVTISCSGSSSNVGSHSVNWYQHLPGTAPKLLIYSNHRRPSGVPDRFSGSKSDTSASLAISGIQSEDEADYYCATWDGRLNVLFGGGTKLTVL
B20: Fab3-2 (Fab, V domains shown)
VH: EVQLLESGGGLVQPGGSLRLSCAASGFTFSNYAMSWVRQAPGKGLEWVSLISGSGGSIDYADSVKGRFTISRDNSKNTLYLQMDSLRAEDTAVYYCSKDPIYYDLSGYYAGRIYYFDYWGQGTLVTVSS
VL: EIVMTQSPATLSVSPGDTATLSCRASHSVSRDLAWYQQKPGQAPRLLIYDASTRATGIPARFSGSGSGTEFTLTISSLQSEDFAVYYCQQYINWVTFGPGTKVDIE
B21: Fab1-1 (Fab, V domains shown)
VH: EVQLVESGGGLVKPGGSLRLSCAASGVPFSDAWMNWVRQAPGKGLEWVGRIKSKKDGGTADYAAPVKGRFSISRDDSKKMLYLHMNSLKTEDTAVYYCTTEPSGYCSNGLCYTGNYWGQGTLVTVSS
VL: QPVLTQSSSASASLGSSVKLTCTLSSGHITYIIAWHQQQPGKAPRYLMKLEDSGSYNKGSGVPDRFSGSSSGADRYLTISNLQFEDEADYYCETWDSYTRVFGGGTKLT

Molecular target: AAV9 capsid (adeno-associated virus serotype 9 (AAV9), UniProt Q6JC40)
Assay: cryo-EM structure

Binder | binding result | stoichiometry N
B1 | binds | 
B2 | binds | 
B3 | binds | 
B4 | binds | 
B5 | binds | 
B6 | binds | 
B7 | binds | 
B8 | binds | 
B9 | binds | 
B10 | binds | 
B11 | binds | 
B12 |  | ≤ 60 Fabs per capsid
B13 | binds | 
B14 | binds | 
B15 | binds | 
B16 | binds | 
B17 | binds | 
B18 | binds | 
B19 |  | ≤ 24 Fabs per capsid
B20 | binds | 
B21 | binds | 
